Measured values reported in the supplement of paper PMC10567573.

B1: KCNG1 (parent)
chain: LFVTVTAVNLSVSTLPSLREEEEQ

Variants of: B1
Experiment: protein stability index of a GFP-peptide fusion (GPS, HEK-293T) (PSI 1-6); higher = more stable
Conditions: c terminus: a fixed tail appended
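Note: lentivirally expressed fusions sorted by FACS into six bins by GFP to DsRed ratio, PSI derived from sequencing read proportions per bin multiplied by bin number.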

| Variant | protein stability index |
| --- | --- |
| LFVTVTAVNLSVSTLPSLRFEEEQ | 3.08 |
| LFVTVTAVNLSVSTLPSLRCEEEQ | 3.25 |
| LFVTVTAVNLSVSTLPSLRKEEEQ | 1.62 |
| LFVTVTAVNLSVSTLPSLRSEEEQ | 3.18 |
| LFVTVTAVNLSVSTLPSLRDEEEQ | 1.67 |
| LFVTVTAVNLSVSTLPSLRPEEEQ | 1.7 |
| LFVTVTAVNLSVSTLPSLRTEEEQ | 3.53 |
| LFVTVTAVNLSVSTLDSLREEEEQ | 1.19 |
| LFVTVTAVNLSVSTLRSLREEEEQ | 1.75 |
| LFVTVTAVNLSVSTLKSLREEEEQ | 2.5 |
| LFVTVTAVNLSVSTLCSLREEEEQ | 1.65 |
| LFVTVTAVNLSVSTLNSLREEEEQ | 3.87 |
| LFVTVTAVNLSVSTLSSLREEEEQ | 2.05 |
| LFVTVTAVNLSVSTLMSLREEEEQ | 3.14 |
| LFVTVTAVNLSVSTLPSNREEEEQ | 2.47 |
| LFVTVTAVNLSVSTLPSSREEEEQ | 3.17 |
| LFVTVTAVNLSVSTLPSMREEEEQ | 3.35 |
| LFVTVTAVNLSVSTLPSHREEEEQ | 2.87 |
| LFVTVTAVNLSVSTLPSYREEEEQ | 1.35 |
| LFVTVTAVNLSVSTLPSPREEEEQ | 2.48 |
| LFVTVTAVNLSVSTLPSRREEEEQ | 1.57 |
| LFVTVTAVNLSVSTLPSVREEEEQ | 2.17 |
| LFVTVTAVNLSVSTLPSQREEEEQ | 2.23 |
| LFVTVTAVNLSVSTLPSDREEEEQ | 2.05 |

| Variant | protein stability index |
| --- | --- |
| LFVTVTAVNLSVSTLPSTREEEEQ | 3.48 |
| LFVTVTAVNLSVSTLPSWREEEEQ | 3.02 |
| LFVTVTAVNLSVSTLPSIREEEEQ | 1.62 |
| LFVTVTAVNLSVSTLPSAREEEEQ | 3.29 |
| LFVTVTAVNLMVSTLPSLREEEEQ | 3.64 |
| LFVTVTAVNLGVSTLPSLREEEEQ | 1.73 |
| LFVTVTAVNLYVSTLPSLREEEEQ | 4.29 |
| LFVTVTAVNLPVSTLPSLREEEEQ | 2.02 |
| LFVTVTAVNLRVSTLPSLREEEEQ | 2.63 |
| LFVTVTAVNLEVSTLPSLREEEEQ | 1.72 |
| LFVTVTAVNLHVSTLPSLREEEEQ | 1.72 |
| LFVTVTAVNTSVSTLPSLREEEEQ | 2.03 |
| LFVTVTAVNYSVSTLPSLREEEEQ | 1.95 |
| LFVTVTAVNKSVSTLPSLREEEEQ | 2.47 |
| LFVTVTAVNSSVSTLPSLREEEEQ | 2.21 |
| LFVTVTAVNWSVSTLPSLREEEEQ | 2.88 |
| LFVTVTAVNRSVSTLPSLREEEEQ | 3.45 |
| LFVTVTAVNVSVSTLPSLREEEEQ | 1.9 |
| LFVTVTAVNQSVSTLPSLREEEEQ | 3.77 |
| LFVTVTAVNMSVSTLPSLREEEEQ | 2.21 |
| LFVTVTAVNNSVSTLPSLREEEEQ | 3.48 |
| LFVTVTAVNPSVSTLPSLREEEEQ | 2.32 |
| LFVTVTAVNLSVSTDPSLREEEEQ | 3.09 |
| LFVTVTAVNLSVSTTPSLREEEEQ | 3.77 |

| Variant | protein stability index |
| --- | --- |
| LFVTVTAVNLSVSTQPSLREEEEQ | 1.05 |
| LFVTVTAVNLSVSTMPSLREEEEQ | 2.51 |
| LFVTVTAVNLSVSTPPSLREEEEQ | 2.48 |
| LFVTVTAVNLSVSTVPSLREEEEQ | 1.76 |
| LFVTVTAVNLSVSTCPSLREEEEQ | 2.81 |
| LFVTVTAVNLSVSTIPSLREEEEQ | 1.36 |
| LFVTVTAVNLSVSTGPSLREEEEQ | 1.72 |
| LFVTVTAVNLSVSTKPSLREEEEQ | 1.62 |
| LFVTVTAVNLSVQTLPSLREEEEQ | 1.78 |
| LFVTVTAVNLSVITLPSLREEEEQ | 2.89 |
| LFVTVTAVNLSVDTLPSLREEEEQ | 1.55 |
| LFVTVTAVNLSVLTLPSLREEEEQ | 2.71 |
| LFVTVTAVNLSVHTLPSLREEEEQ | 1.29 |
| LFVTVTAVNLSVFTLPSLREEEEQ | 1.52 |
| LFVTVTAVNLSVYTLPSLREEEEQ | 3.08 |
| LFVTVTAVNLSTSTLPSLREEEEQ | 2.05 |
| LFVTVTAVNLSPSTLPSLREEEEQ | 1.6 |
| LFVTVTAVNLSWSTLPSLREEEEQ | 2.35 |
| LFVTVTAVNLSKSTLPSLREEEEQ | 2.44 |
| LFVTVTAVNLSSSTLPSLREEEEQ | 1.85 |
| LFVTVTAVNLSLSTLPSLREEEEQ | 3.1 |
| LFVTVTAVNLSRSTLPSLREEEEQ | 1.89 |
| LFVTVTAVNLSCSTLPSLREEEEQ | 2.79 |
| LFVTVTAVNLSQSTLPSLREEEEQ | 1.4 |

| Variant | protein stability index |
| --- | --- |
| LFVTVTAVNLSDSTLPSLREEEEQ | 1.71 |
| LFVTVTAVNLSASTLPSLREEEEQ | 2.71 |
| LFVTVTAVNLSFSTLPSLREEEEQ | 2.17 |
| LFVTVTAVNLSHSTLPSLREEEEQ | 1.53 |
| LFVTVTAVNLSGSTLPSLREEEEQ | 1.45 |
| LFVTVTAVNLSYSTLPSLREEEEQ | 2.08 |
| LFVTVTAVNLSESTLPSLREEEEQ | 2.19 |
| LFVTVTAVNLSMSTLPSLREEEEQ | 1.47 |
| LFVTVTAVNLSVSPLPSLREEEEQ | 2.61 |
| LFVTVTAVNLSVSRLPSLREEEEQ | 4.33 |
| LFVTVTAVNLSVSVLPSLREEEEQ | 2.13 |
| LFVTVTAVNLSVSSLPSLREEEEQ | 1.36 |
| LFVTVTAVNLSVSELPSLREEEEQ | 1.99 |
| LFVTVTAVNLSVSDLPSLREEEEQ | 1.52 |
| LFVTVTAVNLSVSYLPSLREEEEQ | 2.34 |
| LFVTVTAVNLSVSKLPSLREEEEQ | 1.77 |
| LFVTVTAVNLSVSHLPSLREEEEQ | 2.56 |
| LFVTVTAVNLSVSMLPSLREEEEQ | 2.01 |
| LFVTVTAVNLSVSWLPSLREEEEQ | 2.87 |
| LFVTVTAVNLSVSTLPSLNEEEEQ | 1.96 |
| LFVTVTAVNLSVSTLPSLQEEEEQ | 1.2 |
| LFVTVTAVNLSVSTLPSLDEEEEQ | 2.32 |
| LFVTVTAVNLSVSTLPSLEEEEEQ | 1.43 |
| LFVTVTAVNLSVSTLPSLKEEEEQ | 3.36 |

| Variant | protein stability index |
| --- | --- |
| LFVTVTAVNLSVSTLPSLLEEEEQ | 2.85 |
| LFVTVTAVNLSVSTLPSLCEEEEQ | 2.09 |
| LFVTVTAVNLSVSTLPSLSEEEEQ | 2.41 |
| LFVTVTAVNLSVSTLPSLHEEEEQ | 1.41 |
| LFVTVTAVNLSVSTLPSLVEEEEQ | 1.99 |
| LFVTVTAVNLSVSTLPSLFEEEEQ | 3.41 |
| LFVTVTAVNLSVSTLPSLREREEQ | 2.43 |
| LFVTVTAVNLSVSTLPSLRENEEQ | 3.49 |
| LFVTVTAVNLSVSTLPSLREGEEQ | 1.01 |
| LFVTVTAVNLSVSTLPSLREYEEQ | 3.39 |
| LFVTVTAVNLSVSTLPSLREKEEQ | 2.25 |
| LFVTVTAVNLSVSTLPSLREPEEQ | 2.06 |
| LFVTVTAVNLSVSTLPSLREVEEQ | 1.63 |
| LFVTVTAVNLSVSTLPSLREHEEQ | 2.28 |
| LFVTVTAVNLSVSTLPSLREEEEK | 1.74 |
| LFVTVTAVNLSVSTLPSLREEEEN | 2.31 |
| LFVTVTAVNLSVSTLPSLREEEEY | 2.27 |
| LFVTVTAVNLSVSTLPSLREEEEM | 2.66 |
| LFVTVTAVNLSVSTLPSLREEEEE | 1.37 |
| LFVTVTAVNLSVSTLPSLREEEED | 2.28 |
| LFVTVTAVNLSVSTLPSLREEEEL | 1.02 |
| LFVTVTAVNLSVSTLPSLREEEES | 2.44 |
| LFVTVTAVNLSVSTLPSLREESEQ | 1.89 |
| LFVTVTAVNLSVSTLPSLREETEQ | 2.14 |

| Variant | protein stability index |
| --- | --- |
| LFVTVTAVNLSVSTLPSLREEHEQ | 1.61 |
| LFVTVTAVNLSVSTLPSLREEKEQ | 3.13 |
| LFVTVTAVNLSVSTLPSLREELEQ | 3.04 |
| LFVTVTAVNLSVSTLPSLREEMEQ | 3.4 |
| LFVTVTAVNLSVSTLPSLREEQEQ | 3.16 |
| LFVTVTAVNLSVSTLPSLREEPEQ | 2.31 |
| LFVTVTAVNLSVSTLPSLREEIEQ | 2.19 |
| LFVTVTAVNLSVSTLPHLREEEEQ | 1.26 |
| LFVTVTAVNLSVSTLPELREEEEQ | 3.27 |
| LFVTVTAVNLSVSTLPYLREEEEQ | 1.51 |
| LFVTVTAVNLSVSTLPCLREEEEQ | 1.79 |
| LFVTVTAVNLSVSTLPTLREEEEQ | 2.22 |
| LFVTVTAVNLSVSTLPPLREEEEQ | 2.55 |
| LFVTVTAVNLSVSTLPKLREEEEQ | 4.4 |
| LFVTVTAVNLSVSTLPFLREEEEQ | 1.79 |
| LFVTVTAVNLSVSTLPGLREEEEQ | 2.51 |
| LFVTVTAVNLSVSTLPNLREEEEQ | 1.7 |
| LFVTVTAVNLSVSTLPALREEEEQ | 1.55 |
| LFVTVTAVNLSVSTLPSLREEEYQ | 2.93 |
| LFVTVTAVNLSVSTLPSLREEEKQ | 2.12 |
| LFVTVTAVNLSVSTLPSLREEETQ | 4.29 |
| LFVTVTAVNLSVSTLPSLREEECQ | 2.7 |
| LFVTVTAVNLSVSTLPSLREEELQ | 3.24 |
| LFVTVTAVNLSVSTLPSLREEEDQ | 1.71 |
